Measurements: patent US20250027060A1 (VIB VZW, published 2025)
Residue numbers refer to the chain shown, from its start. Numbers in names are those of the source. One block for each binder: values may come before it.

Legend:
[1] = biological target: T1, ALKTG (human ALK amino acids 648-985) (human, UniProt Q9UM73 648-985, N-linked glycans; EndoH-trimmed for crystals and SEC-MALLS); test: ITC
T1 construct: Fc-His6 tag removed by caspase 3; also called ALK TG supradomain
Description: (§1) Experiments were performed using a MicroCal PEAQ-ITC instrument at 310K. Proteins used in ITC experiments were expressed in HEK293S cells grown in suspension. As a final purification step all proteins were buffer exchanged to the same HBS buffer via size-exclusion chromatography. Titrations were preceded by an initial injection of 0.5 μL. The injection spacing was optimized per experiment to allow for the signal to get back to a stable baseline. Throughout the titration the sample was stirred at a speed of 750 r.p.m. Data were analyzed using the PEAQ-ITC analysis software (version 1.1.0.1262, Malvern) and fit using a “one set of sites” model.

[2] = biological target: T2, ALKTG-EGFL (human ALK amino acids 648-1025) (human, UniProt Q9UM73 648-1025, N-linked glycans; EndoH-trimmed (deglycosylated) for crystals and SEC-MALLS); test: ITC, 310 K, one-site model
T2 construct: The C-terminal Fc-His6 tag was removed by caspase 3; also called ALK (in BLI, SEC-MALLS and ITC)
T2 sequence (Q9UM73 648-1025): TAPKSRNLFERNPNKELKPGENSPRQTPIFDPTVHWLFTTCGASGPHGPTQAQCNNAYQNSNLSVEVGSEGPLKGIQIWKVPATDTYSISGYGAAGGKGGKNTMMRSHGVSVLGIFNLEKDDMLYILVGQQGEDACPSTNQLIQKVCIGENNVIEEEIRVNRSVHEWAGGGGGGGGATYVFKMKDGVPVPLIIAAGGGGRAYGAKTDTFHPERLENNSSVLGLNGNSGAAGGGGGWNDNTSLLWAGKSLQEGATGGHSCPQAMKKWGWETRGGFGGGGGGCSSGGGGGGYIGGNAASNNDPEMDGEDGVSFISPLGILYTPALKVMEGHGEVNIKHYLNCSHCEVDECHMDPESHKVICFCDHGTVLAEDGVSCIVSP
Description: (§2) FIG. 5A and FIG. 5B Isothermal titration calorimetry thermograms for the titration of ALK_TG-EGFL (10 μM) with ALKAL2 (100 μM) (FIG. 5A) and titration of ALKAL1 (25 μM) with ALK_TG-EGFL (210 μM) (FIG. 5B). […] The right panel represents the binding isotherm obtained from the integration of the raw data and fitted to a one-site model. Standard deviations were calculated based on 3 measurements.
as §1

[3] = biological target: T3, LTKTG-EGFL (human LTK amino acids 63-420) (human, UniProt P29376 63-420); test: ITC, 310 K, one-site model, 2:1 stoichiometry
T3 construct: Fc-His6 tag removed by caspase 3; also called LTK (in BLI, SEC-MALLS and ITC)
T3 sequence: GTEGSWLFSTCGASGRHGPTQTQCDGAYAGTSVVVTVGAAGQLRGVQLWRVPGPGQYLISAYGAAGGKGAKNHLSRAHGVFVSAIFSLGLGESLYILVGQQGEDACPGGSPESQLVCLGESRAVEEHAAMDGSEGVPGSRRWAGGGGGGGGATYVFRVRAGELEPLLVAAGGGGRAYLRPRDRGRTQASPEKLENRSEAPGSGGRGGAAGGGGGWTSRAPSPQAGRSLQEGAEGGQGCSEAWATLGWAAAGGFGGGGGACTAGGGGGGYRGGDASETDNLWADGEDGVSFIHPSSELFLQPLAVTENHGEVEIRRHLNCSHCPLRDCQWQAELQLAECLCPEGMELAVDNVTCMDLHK
Description: (§3) The right panel represents the binding isotherm obtained from the integration of the raw data and fitted to a one-site model. Standard deviations were calculated based on 3 measurements.
as §1

[4] = biological target: T4, ALKFL (full-length human ALK ectodomain, amino acids 19-1025) (human, UniProt Q9UM73 19-1025); test: ITC at 310 K, ALKFL (8 µM) titrated with ALKAL2 (82 µM), one-site model
T4 construct: Fc-His6 tag removed by caspase 3; also called full-length ALK ectodomain
T4 sequence (Q9UM73 19-1025): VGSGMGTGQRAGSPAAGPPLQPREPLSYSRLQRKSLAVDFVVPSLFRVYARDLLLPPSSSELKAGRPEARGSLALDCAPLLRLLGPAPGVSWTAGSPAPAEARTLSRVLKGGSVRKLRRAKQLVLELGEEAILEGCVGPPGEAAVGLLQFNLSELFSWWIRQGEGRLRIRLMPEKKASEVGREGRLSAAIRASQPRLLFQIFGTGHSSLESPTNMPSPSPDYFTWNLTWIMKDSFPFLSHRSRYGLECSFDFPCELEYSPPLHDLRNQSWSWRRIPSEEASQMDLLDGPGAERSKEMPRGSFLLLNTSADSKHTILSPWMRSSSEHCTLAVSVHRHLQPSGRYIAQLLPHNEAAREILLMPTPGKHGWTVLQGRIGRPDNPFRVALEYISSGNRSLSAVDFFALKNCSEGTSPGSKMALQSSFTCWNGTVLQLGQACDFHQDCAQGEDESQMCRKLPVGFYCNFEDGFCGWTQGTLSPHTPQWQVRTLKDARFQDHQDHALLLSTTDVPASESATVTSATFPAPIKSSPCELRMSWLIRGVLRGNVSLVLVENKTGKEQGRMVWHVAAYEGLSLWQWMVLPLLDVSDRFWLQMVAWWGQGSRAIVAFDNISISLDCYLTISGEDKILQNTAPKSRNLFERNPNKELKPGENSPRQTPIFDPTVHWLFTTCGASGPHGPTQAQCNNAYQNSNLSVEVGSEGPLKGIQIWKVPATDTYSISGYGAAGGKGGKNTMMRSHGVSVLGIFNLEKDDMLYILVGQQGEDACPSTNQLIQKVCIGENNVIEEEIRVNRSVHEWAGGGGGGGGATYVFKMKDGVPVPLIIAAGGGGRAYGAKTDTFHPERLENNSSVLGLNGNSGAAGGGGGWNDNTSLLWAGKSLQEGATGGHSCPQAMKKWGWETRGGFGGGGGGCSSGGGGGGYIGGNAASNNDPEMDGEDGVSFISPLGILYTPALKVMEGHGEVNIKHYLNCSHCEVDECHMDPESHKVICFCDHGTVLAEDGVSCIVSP

[5] = biological target: T1, ALKTG (human ALK amino acids 648-985); test: ITC at 310 K, ALKAL2 (33 µM) titrated with ALKTG (330 µM), one-site model
Description: FIG. 5D, Titration of ALKAL2 (33 μM) with ALKTG (330 μM) Standard deviations were calculated based on 3 measurements.
as §1

[6] = biological target: T5, LTKTG (human LTK amino acids 63-379) (human, UniProt P29376 63-379); test: ITC at 310 K, LTKTG (10 µM) titrated with ALKAL2 (100 µM), one-site model
T5 construct: also called LTK TG supradomain
T5 sequence: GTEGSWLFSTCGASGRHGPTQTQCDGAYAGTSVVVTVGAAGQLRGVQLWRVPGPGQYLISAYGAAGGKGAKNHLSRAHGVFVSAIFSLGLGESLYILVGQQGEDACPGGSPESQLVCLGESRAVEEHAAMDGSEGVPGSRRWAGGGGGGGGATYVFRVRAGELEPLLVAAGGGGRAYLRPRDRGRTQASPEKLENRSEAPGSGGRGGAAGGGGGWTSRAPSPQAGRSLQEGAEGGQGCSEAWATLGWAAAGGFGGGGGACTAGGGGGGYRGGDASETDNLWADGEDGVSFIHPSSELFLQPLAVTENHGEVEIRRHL
Description: FIG. 12G, ITC experiments for the titration of LTKTG (10 μM) with ALKAL2 (100 μM) Standard deviations were calculated based on 2 measurements.
as §1

[7] = biological target: T2, ALKTG-EGFL (human ALK amino acids …); test: ITC at 310 K, ALKTG-EGFL (10 µM) titrated with ALKAL2 (100 µM), one-site model
Description: as §2, §1

[8] = biological target: T3, LTKTG-EGFL (human LTK amino acids …); test: ITC at 310 K, LTKTG-EGFL (12 µM) titrated with ALKAL2 (56 µM), one-site model
Description: as §3, §1

[9] = biological target: T2, ALKTG-EGFL (human ALK amino acids …); test: BLI, biotinylated ALKAL2 on streptavidin biosensors, ALKTG-EGFL in solution 800 nM to 12.5 nM, 1:1 model
Description: (§4) FIGS. 10A and 10B Representative response curves as measure by biolayer-interferometry (BLI) for the interaction of WT ALKAL1 and ALKAL1 mutants (containing charge-reversal mutations of residues involved in site 1) (FIG. 10A) and WT ALKAL2 and ALKAL2 mutants (FIG. 10B) with ALK_TG-EGFL and LTK_TG-EGFL. For WT ALKALs LTK curves were fitted with a 2:1 binding model (red) while for ALK a 1:1 model was used. Start and end concentrations of the 3-fold dilution series used for the WT measurements is shown as an inset while for all mutants a […] dilution series from 6.4 μM-400 nM was used.
(§5) All measurements of binding kinetics and dissociation constants were performed using an Octet Red 96 (Forté Bio) in assay buffer (20 mM HEPES pH 7.4, 150 mM NaCl, 0.02% (w/v) BSA, 0.002% (v/v) Tween 20) at 298K. ALKALs were immobilized to a level of 0.5 nm on streptavidin-coated biosensors (Forté Bio). To verify that no a specific binding was present during the assay, non-functionalized biosensors were used as a control by measuring in parallel all ligand concentrations as well as running buffer. For all mutants a two-fold dilution series from 6.4 μM-400 nM was employed. Data analysis was performed using the Data Analysis software 9.0.0.14 (Forté Bio) and binding curves were exported to Prism8 (Graphpad Software) for plotting of curves.

[10] = biological target: T3, LTKTG-EGFL (human LTK amino acids …); test: BLI, biotinylated ALKAL2 on streptavidin biosensors, LTKTG-EGFL in solution 300 nM to 11 nM, 2:1 binding model, component 1
Description: as §4, §5

[11] = biological target: T3, LTKTG-EGFL (human LTK amino acids …); test: BLI, biotinylated ALKAL2 on streptavidin biosensors, LTKTG-EGFL in solution 300 nM to 11 nM, 2:1 binding model, component 2
Description: as §4, §5

[12] = biological target: T3, LTKTG-EGFL (human LTK amino acids …); test: BLI, biotinylated ALKAL2 H100A on streptavidin biosensors, LTKTG-EGFL in solution, dilution series 6.4 µM-400 nM, biphasic fit, component 1
Description: as §4, §5

[13] = biological target: T3, LTKTG-EGFL (human LTK amino acids …); test: BLI, biotinylated ALKAL2 H100A on streptavidin biosensors, LTKTG-EGFL in solution, dilution series 6.4 µM-400 nM, biphasic fit, component 2
Description: as §4, §5

[14] = biological target: T3, LTKTG-EGFL (human LTK amino acids …); test: BLI, biotinylated ALKAL2 H100A on streptavidin biosensors, LTKTG-EGFL in solution, dilution series 6.4 µM-400 nM, biphasic fit, component 2; the sheet prints x0^-1, taken as x10^-1
Description: as §4, §5

[15] = biological target: T2, ALKTG-EGFL (human ALK amino acids …); test: BLI, biotinylated ALKAL2 R123E on streptavidin biosensors, ALKTG-EGFL in solution, dilution series 6.4 µM-400 nM
Description: as §4, §5

[16] = biological target: T3, LTKTG-EGFL (human LTK amino acids …); test: BLI, biotinylated ALKAL2 R123E on streptavidin biosensors, LTKTG-EGFL in solution, dilution series 6.4 µM-400 nM
Description: as §4, §5

[17] = biological target: T3, LTKTG-EGFL (human LTK amino acids …); test: BLI, biotinylated ALKAL1 R102E on streptavidin biosensors, LTKTG-EGFL in solution, dilution series 6.4 µM-400 nM
Description: as §4, §5

T1 sequence (Q9UM73 648-985 limits assumed): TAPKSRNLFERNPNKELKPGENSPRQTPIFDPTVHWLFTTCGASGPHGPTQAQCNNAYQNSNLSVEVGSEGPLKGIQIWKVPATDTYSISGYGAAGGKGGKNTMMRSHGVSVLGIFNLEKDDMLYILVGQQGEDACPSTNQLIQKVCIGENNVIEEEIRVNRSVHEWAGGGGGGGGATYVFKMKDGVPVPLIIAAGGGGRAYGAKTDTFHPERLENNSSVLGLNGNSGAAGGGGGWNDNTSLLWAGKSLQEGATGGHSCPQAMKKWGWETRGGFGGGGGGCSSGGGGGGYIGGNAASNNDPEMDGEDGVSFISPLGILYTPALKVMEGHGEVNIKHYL

B1: ALKAL2 (truncated, residues 78-152) (ligand, human, UniProt Q6UX46 78-152, looked up)
chain: PSPEQRVEIVPRDLRMKDKFLKHLTGPLYFSPKCSKHFHRLYHNTRDCTIPAYYKRCARLLTRLAVSPVCMEDKQ
notes: range 78-152; Tag-free in ITC, SEC-MALLS, crystals and Ba/F3 assays; also called ALKAL2^WT; WT ALKAL2
fold decrease in affinity against ALKTG-EGFL [1]: 30 fold
Kd [2]: 40 nM
Kd [3]: 55 nM
Kd [4]: 70 nM
ΔG [4]: -9.4 kcal/mol
ΔH [4]: -9.7 kcal/mol
Kd [5]: 1300 nM
ΔG [5]: -8.34 kcal/mol
ΔH [5]: -8.3 kcal/mol
Kd [6]: 6.8 nM
ΔG [6]: -11.6 kcal/mol
ΔH [6]: -30.2 kcal/mol
ΔG [7]: -10.6 kcal/mol
ΔH [7]: -10.1 kcal/mol
Kd [8]: 10 nM
ΔG [8]: -11.4 kcal/mol
ΔH [8]: -31 kcal/mol
Kd [9]: 135 nM
Kd [10]: 100 nM
koff [10]: 0.0037 s⁻¹
kon [10]: 28000 M⁻¹ s⁻¹
Kd [11]: 350 nM
koff [11]: 0.0005 s⁻¹
kon [11]: 4000 M⁻¹ s⁻¹

B4: ALKAL1^R102E (residues 57-129) (ligand, human, UniProt Q6UXT8 57-129, looked up)
chain: PSGSRSAEIFPRDSNLKDKFIKHFTGPVTFSPECSKHFHRLYYNTEECSTPAYYKRCARLLTRLAVSPLCSQT
notes: range 57-129; also called ALKAL1 site 1 mutant R102E
Kd [17]: 14000 nM

Continued, values first:

Kd [12]: 280 nM
koff [12]: 0.00082 s⁻¹
kon [12]: 2900 M⁻¹ s⁻¹
Kd [13]: 3000 nM
kon [13]: 53000 M⁻¹ s⁻¹
koff [14]: 0.16 s⁻¹
B2: ALKAL2^H100A (residues 78-152) (ligand, human, UniProt Q6UX46 78-152, looked up)
chain: B1 chain with H23A
notes: range 78-152; Avi-tagged and biotinylated in BLI; also called ALKAL2 site 2 mutant H100A

Kd [15]: 3500 nM
Kd [16]: 2300 nM
B3: ALKAL2^R123E (residues 78-152) (ligand, human, UniProt Q6UX46 78-152, looked up)
chain: B1 chain with R46E
notes: range 78-152; also called ALKAL2 site 1 mutant R123E
